Paper doi:10.1101/2025.04.14.648684

Experiments:
[1] = target: All4144(68–214), N-terminal deletion mutant of All4144 lacking the HTH domain (Anabaena sp. PCC7120); test: cross-linking
[2] = target: All4144 (GrpE homolog of Anabaena sp. PCC 7120), full length (Anabaena sp. PCC7120); test: cross-linking

stoichiometry N [1] | stoichiometry N [2] | Substance
2 | – | All4144(68–214), N-terminal deletion mutant of All4144 lacking the HTH domain (domain or fragment)
– | 2 | All4144 (GrpE homolog of Anabaena sp. PCC 7120), full length (natural protein)
